Assay: yeast display, Sf9 membrane polyspecificity reagent, FACS + sequencing; frameworks hold sequencing errors
Summary of the method: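 Galactose-induced (36–48 hours) yeast carrying a synthetic nanobody display library were exposed to 10% biotinylated, detergent-solubilized Sf9 membrane reagent at 4 °C for 1 hour. FACS followed streptavidin microbead enrichment, using low and high (top ~1%) gates for expression (anti-HA) and reagent binding (streptavidin). Colony PCR, MiSeq 2 × 250 sequencing and CDR-length filtering followed. Labels for polyreactivity reflect the gate of origin.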
With “QVQLVDSGGGLVQAGGSLRLSCAASGITITEYAMGWYRQAPGKERELVAVISSVGTMYYADSVKGRFTISRDNAKNTVYFQMNSLKPEDTAVYYCAADYSDDGEYPYWSGSDYWGQGTQVTVSS” the “polyreactivity (PSR sort gate)” value was “low polyreactivity”.
With “QVQLVDSGGGLVQAGGSLRLSCAASGLIFGYYDMGWYRQAPGKERELVAAITTGDSTYYADSVKGRFTISRDNAKNTVYLQMTCLKPEDSAVYYCSAYAFWYYESDYWGKGTQVTVSS” the “polyreactivity (PSR sort gate)” value was “low polyreactivity”.
For “QVQLVDSGGGLVQAGGSLRLSCAASGLIFSQYAMGWYRQAPGKEREFVARISSSGGSTYYADSVKGRFTISRDNAKNTVYLQMNSLKPEDTAVYYCAAVGGRNIRVWFRNKYDSWGQGTQVTVSS”, the “polyreactivity (PSR sort gate)” value was “low polyreactivity”.
With “QVQLVDSGGGLVQAGGSLRLSCAASGLIFTYYAMGWYRQAPGKERELVAAINYSGGSTYYADSVKGRFTISRDNAKNSVYLQMNSLKPEDTAVYYCAARRVTQTEGPMGYWGQGTQVTVSS” the “polyreactivity (PSR sort gate)” value was “low polyreactivity”.
In the case of “QVQLVDSGGGLVQAGGSLRLSCAASGLTFIRYAMGWYRQAPGKERELVAAITRGGTRTYYADSVKGRFTISRDNAKNTVYLQMNSLKPEDTAVYYCAALSRYGRFDYWGQGTQVTVSS”, the “polyreactivity (PSR sort gate)” value is reported as “high polyreactivity”.
For “QVQLVDSGGGLVQAGGSLRLSCAASGLTFSKYAMGWYRQAPGKERELVSAISRSGGSTYYADSVKGRFTISRDNAKNTVYLQMNSLKPEDTAVYYCAARRLVGAERPGYDYWGQGTQVTVSS”, the “polyreactivity (PSR sort gate)” value was “high polyreactivity”.
For “QVQLVDSGGGLVQAGGSLRLSCAASGNIFRANAMGWYRQAPGKERELVAAIRWRGVGTYYADSVKGRFTISRDYAKNTVYLQINSLKPEDTAVYYCAAYVKTGAYDYWGQGTLVTVSS”, the “polyreactivity (PSR sort gate)” value was “high polyreactivity”.
For “QVQLVDSGGGLVQAGGSLRLSCAASGNTFRIYAMAWYRQAPGKERELVAAISQSGGSTYYADSVKGRFTISRDNAKNTVYLQMNSLKPEDTAVYYCAATGARRKFYYWGQGTQVTVSS”, the “polyreactivity (PSR sort gate)” value was “high polyreactivity”.
In the case of “QVQLVDSGGGLVQAGGSLRLSCAASGRIFHVYAMGWYRKAPGKERELLADITWSGGSTYYADSVKGRFTISRDNAKNTVYLQMNSLKPEDTAVYYCAAAYYGYARWRGPRKMDYWGQGTQVTVSS”, the “polyreactivity (PSR sort gate)” value is reported as “high polyreactivity”.
In the case of “QVQLVDSGGGLVQAGGSLRLSCAASGRIFRYYAMGWYRQAPGKERELVAGINQSGGSTYYADSVKGRFTISRDNAKNTVYLQMNSLKPEDTAVYYCAAKVSWPKYDYWGQGTQVTVSS”, the “polyreactivity (PSR sort gate)” value is reported as “low polyreactivity”.
In the case of “QVQLVDSGGGLVQAGGSLRLSCAASGRIFSRYAMGWYRQAPGKERELVASISYSGGSTNYADSVKGRFTISRDNAKNTFYLQMNSLKPEDTAVYYCAAGQYSYRRRYNYWGQGTQVTVSS”, the “polyreactivity (PSR sort gate)” value is reported as “high polyreactivity”.
In the case of “QVQLVDSGGGLVQAGGSLRLSCAASGRIFYRYAMGWYRQAPGKERELVATISRGGITNYADSVKGRFTISRDNAKNTVYLEMNSLKPEDTAVYYCNAVYGFRRLFEYEYDYWGQGTQVTVSS”, the “polyreactivity (PSR sort gate)” value is reported as “high polyreactivity”.
In the case of “QVQLVDSGGGLVQAGGSLRLSCAASGRNFNEYAMGWSRPAPGKERELVAAISSSGDSTYYADSVKGRFTISRDNAKNTVYLQMNSLKPEDTAVYYGAAQVVVWYPYVYFPGSDYWGQGTQVTVSS”, the “polyreactivity (PSR sort gate)” value is reported as “low polyreactivity”.
In the case of “QVQLVDSGGGLVQAGGSLRLSCAASGRTFGKNVMGWYREAPGKERELVAAISLSGGSTYYADSVKGRFTISRDNAKNTVYLQMNSLKPEDTAVYYCAAAAYGKPWGLDYWGQGTQVTVSS”, the “polyreactivity (PSR sort gate)” value is reported as “low polyreactivity”.
For “QVQLVDSGGGLVQAGGSLRLSCAASGRTFKPYTMGWYRQAPGKERDLVAAISARGVSTYYADSVKGRFTISRDNAKNTGYLQMNSLKPEDTAVYYCNRVYFIGYRVFPPPMDYWGQGTQVTVSS”, the “polyreactivity (PSR sort gate)” value was “high polyreactivity”.
For “QVQLVDSGGGLVQAGGSLRLSCAASGRTFNLYAMGWYRQAPGKERELVATIDWTGGSTYYADSVKGRFTISRDNAKNTVYLQMNSLKPEDTAVYYCNADRFADYDYWGQGTQVTVSS”, the “polyreactivity (PSR sort gate)” value was “low polyreactivity”.
In the case of “QVQLVDSGGGLVQAGGSLRLSCAASGRTFRYYAMGSYRQAPGKERELVAAISGRGGSTYYADSVKGRFTISRDNAKNTVYLLMNSLKPADTAVYYCAKRGYYRSRRYDYWGQGTQVTVSS”, the “polyreactivity (PSR sort gate)” value is reported as “high polyreactivity”.
For “QVQLVDSGGGLVQAGGSLRLSCAASGRTFSANAMGWYRQAPGKERELVAGITSRGGGTYYADSVKGRFTISRDNAKNTVYLQMNSLKTEDTAVYYGAKASRYWSLYYWGQGTQVTVSS”, the “polyreactivity (PSR sort gate)” value was “high polyreactivity”.
In the case of “QVQLVDSGGGLVQAGGSLRLSCAASGRTFYGNAMGWYRQAPGKARELVAAINRDGGTYYADSVKGRFTISRDNAKNTVYLQMNSLKPEDTAVYYCNAVKRGIRYGYWGQGTQVTVSS”, the “polyreactivity (PSR sort gate)” value is reported as “high polyreactivity”.
In the case of “QVQLVDSGGGLVQAGGSLRLSCAASGRTFYPYVMGWYRQPPGKERELVADISWSGGRTYYADSVKGRFTISRDNAKNTVYLQMNSLKPEDTAVYYCAAGYRRRYNYWGQGTQVTVSS”, the “polyreactivity (PSR sort gate)” value is reported as “high polyreactivity”.
In the case of “QVQLVDSGGGLVQAGGSLRLSCAASGRTIGINPMGWYRQAPGKERELVASITRSVGSTYDADSVKGRFTISRDNAKNTVYLQMNSLKPEDTEVYYCAAEYYTWSYYTKYYYWGQGTQVTVSS”, the “polyreactivity (PSR sort gate)” value is reported as “high polyreactivity”.
With “QVQLVDSGGGLVQAGGSLRLSCAASGRTIPYYAMGWYRQAPGKERELVAAISSSGGRTYYADSVKGRFTISRDNAKNTVYLQMNSLKPEDTAVYYCNVDAWYPYQGFLVGYYYWGQGTQVTVSS” the “polyreactivity (PSR sort gate)” value was “low polyreactivity”.
With “QVQLVDSGGGLVQAGGSLRLSCAASGRTIWRNAMGWYRQAPGKERELVAAIRWSGGRTYADSVKGRFTISRDKAKNTVYLQMNILKPEDTAVYYCNARGLSDWTLKLDYWGQGTQVTVSS” the “polyreactivity (PSR sort gate)” value was “low polyreactivity”.
With “QVQLVDSGGGLVQAGGSLRLSCAASGRTIYNYDMGWYRQAPGKERELVARIFSGGSTNYADSVKGRFTISRDNAKNTVYLQMNSLKPEDTAVYYCNAVLESQFIGWKFFYWGQGTQVSVSS” the “polyreactivity (PSR sort gate)” value was “high polyreactivity”.
For “QVQLVDSGGGLVQAGGSLRLSCAASGSIFGSYAMGWYRQAPGKERELVAGISGRGGSTYYADSVKGRFTISRDNAKNTVYLQMNSLKPEDTAVYYCAAGRRNGWLIPHYYWGQGTQVTVSS”, the “polyreactivity (PSR sort gate)” value was “high polyreactivity”.
In the case of “QVQLVDSGGGLVQAGGSLRLSCAASGSIFGYYAMGWYRQAPGKERELVAAINSGSSTNYADSVKGRFTISRDNAKNTVYLQMNSLKPEDTAVYYCNKDPWYVFHPRGLFLFDYWGQGTQVTVSS”, the “polyreactivity (PSR sort gate)” value is reported as “low polyreactivity”.
For “QVQLVDSGGGLVQAGGSLRLSCAASGSIFIINAKGWYRQSPGKERELVAAINSGGSTKYADSVKGRFTISRDNAKNTVYLQMNSLKPEDTAVYYCNAGSRPTAGGMDSWGQGTQVTVSS”, the “polyreactivity (PSR sort gate)” value was “low polyreactivity”.
For “QVQLVDSGGGLVQAGGSLRLSCAASGSIFQRYAMGWYRQAPGKERELVAGINWSGGRTYYADSVKGRFTISRDNAKNTVYLQMNSLKPEDTAVYYCAAARYTRYDYWGQGTQVTVSS”, the “polyreactivity (PSR sort gate)” value was “high polyreactivity”.
In the case of “QVQLVDSGGGLVQAGGSLRLSCAASGSIFSYYAMGWYRPAPGTERELVAGLSWGGGRTYYADSVKGRFTISRDNAKNTVYLQMNSLKQEDTAVYYCAARLTGLDYWGQGTQVTVSS”, the “polyreactivity (PSR sort gate)” value is reported as “high polyreactivity”.
In the case of “QVQLVDSGGGLVQAGGSLRLSCAASGSIFTYNGKVWYRQAPGKEREFVAAITWTGGSTYADSVKGRFTISSDNSNNTVYLQMNSLKREDTAVYYCAAVRRISWYTPVNTRRYYYWGQGTQVTVSS”, the “polyreactivity (PSR sort gate)” value is reported as “high polyreactivity”.
For “QVQLVDSGGGLVQAGGSLRLSCAASGSIIGLYAMGWYRQAPGKERELVAAITTTGGSTYYADSVKGRFTISRDNAKNTVYLQMNSLKPEDTAVYYCNADYVAYGPEYDYWGQGTQVTVSS”, the “polyreactivity (PSR sort gate)” value was “low polyreactivity”.
With “QVQLVDSGGGLVQAGGSLRLSCAASGSITYYAMGWYRQAPGKERELVAAISSSGGSTYYADSVKGRFTISRDNAKNTVYLQMNSLKPEDTAVYYCAAYGRYGAHTGYGSWGQGTQVTVSS” the “polyreactivity (PSR sort gate)” value was “high polyreactivity”.
In the case of “QVQLVDSGGGLVQAGGSLRLSCAASGSTFPNNAMGRYRQAPGKERELVAAITTRGGSTYYADSVKGRFTISRDNAKNTVYLQMNSLKAEDTAVYYCAKRRRSAAPKYDYWGQGTQVTVSS”, the “polyreactivity (PSR sort gate)” value is reported as “high polyreactivity”.
In the case of “QVQLVDSGGGLVQAGGSLRLSCAASGSTFTSYAMGWYRQAPGKERELVAAITGSGGRTYYADSVKGRFTISRDNAKNTVYLQMNSLKPEDTAVYYCAARKVRTVYQSRGNYWGQGTLVTVSS”, the “polyreactivity (PSR sort gate)” value is reported as “high polyreactivity”.
For “QVQLVDSGGGLVQAGGSLRLSCAASGSTFYGYAMGWYRQAPGKERELVAAITSSGTRTYYADSVKGRITISRDNAKNSVYLQMNSLKPEDTAVYYCAADAPNFGLYRDKDYDYWGQGTQVTVSS”, the “polyreactivity (PSR sort gate)” value was “high polyreactivity”.
For “QVQLVDSGGGLVQAGGSLRLSCAASGSTFYWYPMGWYRQAPGKERELVAAISRSSGSTYYADSVKGRFTISRDNAKNTVYLQMNSLTPEDTAVYYCAADYYLRSFVWTAYDSWGHGTQVTVSS”, the “polyreactivity (PSR sort gate)” value was “high polyreactivity”.
For “QVQLVDSGGGLVQAGGSLRLSCAASGSTYSPNAMGWNRQAPGKERELVAAITGGGSTTYADSVQGRFTISRDNATNTVYLQMNSLKPEETAVYYCNTDGPRYARPFDSWGQGTQVTVSS”, the “polyreactivity (PSR sort gate)” value was “low polyreactivity”.
In the case of “QVQLVDSGGGLVQAGGSLRLSCAASGYIFPWYVKGWYRQAPVKERELVAAISWSGGSTYYADSVKGRFTISRDNAKNTVYLQMKSLKPEDTAVYYCNAVRTYRDVSYNSWGQGTQVNVSS”, the “polyreactivity (PSR sort gate)” value is reported as “high polyreactivity”.
In the case of “QVQLVDSGGGLVQAGGSLRLSCAASGYIFRVYAMGWYRQAPGKERELVAAISGSGGRTYYADSVKGRFTISRDNAKNTVYLQMNSLKPEDTAVYYCAAYRVSDYDYWGQGTQVTVSS”, the “polyreactivity (PSR sort gate)” value is reported as “high polyreactivity”.
With “QVQLVDSGGGLVQAGGSLRLSCAASGYTFPSKTMGWYRQAPGKERELVAAISGGGRTYYADSVKGRFTISRDNAKNTVYLQMNCLKPEDSAVYYCAKDSWYTQNRYNYWGQGTQVNVSS” the “polyreactivity (PSR sort gate)” value was “low polyreactivity”.
In the case of “QVQLVDSGGGLVQAGGSLRLSCAASVITFGYYAMGWYRQAPGKERELVAAISRSGGNTRYADSVKGRFTISRDNAKNTVYLQMNSLKTDDTAVYYCAKRTTYSDDYWGQGTQVTVSS”, the “polyreactivity (PSR sort gate)” value is reported as “high polyreactivity”.
